The target of this test is RSV fusion (F) protein (respiratory syncytial virus (strains …, UniProt P03420 26-574)). The experiment in a line: cell-based or functional assay.

Positions of bridges follow the written chain, without caps; N, C: chain ends. No end group written: not given here.

Chain of RSV fusion (F) protein (respiratory syncytial virus (P03420 26-574): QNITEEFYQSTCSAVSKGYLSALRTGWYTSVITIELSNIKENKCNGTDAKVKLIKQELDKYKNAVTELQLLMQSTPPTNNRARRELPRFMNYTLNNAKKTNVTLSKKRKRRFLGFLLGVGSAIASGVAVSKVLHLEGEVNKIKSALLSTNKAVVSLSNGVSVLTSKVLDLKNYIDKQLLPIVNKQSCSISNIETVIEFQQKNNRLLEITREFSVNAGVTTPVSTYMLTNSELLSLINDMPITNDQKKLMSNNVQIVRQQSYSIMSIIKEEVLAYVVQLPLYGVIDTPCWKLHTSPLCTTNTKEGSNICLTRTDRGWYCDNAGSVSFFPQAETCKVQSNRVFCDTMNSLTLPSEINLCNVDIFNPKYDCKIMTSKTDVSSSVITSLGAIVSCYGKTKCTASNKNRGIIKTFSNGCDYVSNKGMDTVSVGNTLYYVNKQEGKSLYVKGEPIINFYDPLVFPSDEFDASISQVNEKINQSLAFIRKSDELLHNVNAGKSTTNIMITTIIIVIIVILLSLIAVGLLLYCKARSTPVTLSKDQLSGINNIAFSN

B1: HR2-S (peptide)
peptide: FDACISQVNECINQSLAFIRKSDELLHNVNAGKST
modifications: disulfide 4-11
For the molecule B1, the “A2 RSV viral titers, plaque assay (time point not clearly stated)” value turned out to be 0.1 fold decrease; the “A2 RSV viral titers, plaque assay on HEp2 cells, 24 h to 96 h pi” value is about 0.2 fold reduction; the “A2 RSV viral titers, plaque assay, 96 h pi” value was 0.1 fold decrease; the “RA2 RSV viral titers, plaque assay (time point not clearly stated)” value was 100 fold decrease. In addition, the “RA2 RSV viral titers, plaque assay, 96 h pi” value came to 20 fold smaller.

B2: HR2-D (peptide)
peptide: DACISQVNECINQSLAFICKSDELLCNT
modifications: not fully specified (bridges); also: predicted disulfides C3-C10 and C19-C26
With B2, the “A2 RSV viral titers, plaque assay (time point not clearly stated)” value amounted to 100 fold reduction; the “A2 RSV viral titers, plaque assay on HEp2 cells, 24 h to 96 h pi” value was at least 100 fold reduction; the “A2 RSV viral titers, plaque assay, 96 h pi” value turned out to be 50000 fold reduction; the “RA2 RSV viral titers, plaque assay (time point not clearly stated)” value was determined as 100 fold decrease. Further, the “RA2 RSV viral titers, plaque assay on HEp2 cells, 24 h to 96 h pi” value was at least 100 fold reduction and the “RA2 RSV viral titers, plaque assay, 96 h pi” value is 1000 fold less.
